Source: patent US20250281533A1 (LG CHEM, published 2025)

T1: C subunit of human MUC1 expressed in HEK293T cells (HEK293T-v1) (human, UniProt P15941 1098-1255, limits assumed)
T1 construct: domain: C subunit of MUC1; also called MUC1-C
T1 sequence (looked up): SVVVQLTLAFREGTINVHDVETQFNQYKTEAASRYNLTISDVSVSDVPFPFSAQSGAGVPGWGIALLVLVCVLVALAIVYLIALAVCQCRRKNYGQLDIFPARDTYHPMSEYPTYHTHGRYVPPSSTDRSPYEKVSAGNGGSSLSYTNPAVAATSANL

B1: scFv 2445_1F09 (scFv)
scFv: EVQLLETGGGLIQPGGSLRLSCAASGFTVSSNYMSWVRQAPGKGLEWVSVIYSGGSTYYADSVKGRFTISRDNSKNTLYLQMNSLRAEDTAVYYCARDRGWNHGMDVWGQGTLVTVSSGGGGSGGGGSGGGASQSGLTQPPSASGTPGQRVTISCSGGSSEVGSRYVSWYQQLPGTAPRLLIYKNDRRPSGVPDRFSGSKSGSSASLAISGLRSEDEADYYCAAWDDSLNGYVFGTGTKLTVL
B2: scFv 2447_3C08 (scFv)
scFv: EVQLLESGGGLVQPGGSLRLSCAASGFTFDDYAMHWVRQAPGKGLEWVSGISWNSGSIGYADSVKGRFTISRDNAKNSLYLQMNSLRAEDTALYYCAKDRGSGYEGNYYGMDVWGQGTLVTVSSGGGGSGGGGSGGGASSYELTQDPAVSVALGQTVRITCQGDSLRSYYASWYQQKPGQAPVLVIYGKNNRPSGIPDRFSGTTSGNTASLTITGAQAEDEADYYCNSRDSSGNHYVFGTGTKVTVL
B3: scFv 2447_3H02 (scFv)
scFv: EVQLLESGGGLVQPGRSLRLSCAASGFTFDDYAMHWVRQAPGKGLEWVSGISWDSGSIGYADSVKGRFTISRDNAKNSLYLQMNSLRAEDTALYYCAKDVSSGWYWYAFDIWGQGTLVTVSSGGGGSGGGGSGGGASSYELTQDPAVSVALGQTVRITCQGDILRSYYASWYQQKPGQAPVLVIYGKNNRPSGIPDRFSGSSSGNTASLTITGAQAEDEADYYCNSRDSSGNRVVFGGGTKLTVL
notes: also called #9
B4: scFv 2447_3H08 (scFv)
scFv: EVQLLESGGGLVQPGRSLRLSCAASGFTFDDYAMHWVRQAPGKGLEWVSGISWNSGSIDYADSVKGRFTISRDNSKNTLYLQMNSLRAEDTAVYYCARDRSSGWYTGSFDYWGQGTLVTVSSGGGGSGGGGSGGGASSYELTQDPAVSVALGQTVRITCQGDSLRSYYASWYRQKPGQAPVLVIYGKNNRPSGIPDRFSGSSSGNTASLTIIGAQAEDEADYYCQSRDSSDNRVLFGGGTKVTVL
notes: also called #10
B5: scFv 2447_2H08 (scFv)
scFv: EVQLVQSGAEVKKPGASVKVSCKASGYTFTNYGISWVRQAPGQGLEWMGWISAYNGNTNYAQKLQGRVTMTTDTSTSTAYMELRSLRSDDTAVYYCARDPHILTGYYRGGWFDPWGQGTTVTVSSGGGGSGGGGSGGGASSYELTQDPAVSVALGQTVTITCQGDSLRTSYAGWLQQKPGQAPVLVLYGKTSRPSGIPDRFSGSTSGNTASLTITGAQAEDEAEYFCHSRDSNDNYLEVVFGGGTKLTVL
B6: scFv 2447_3B07 (scFv)
scFv: QVQLVESGGVVVQPGGSLRLSCAASGFTFDDYAMHWVRQAPGRGLEWVSLTSWDGGSTYYADSVKGRFTISRDNSKNSLYLQMNSLRAEDTALYYCAKDHSSGWYNGGMDVWGQGTMVTVSSGGGGSGGGGSGGGASSYELTQDPAVSVALGQTVRITCQGDSLRSYYASWYQQKPGQAPVLVIYGKNNRPSGIPDRFSGSSSGNTASLTITGAQAEDEADYYCNSRDSSGNHVVFGGGTKLTVL

Experiments:
[1] = molecular target: T1, C subunit of human MUC1 expressed in …; experiment: flow cytometry (PE MFI, corrected to G03 at 380 ug/mL) on HEK293T-v1 cells expressing MUC1 C subunit; 293T-v1 cells
Experimental: The soluble scFv prepared in Example 1 was diluted 5-fold to prepare a total of 8 serial dilutions. Each serial dilution was 380 μg/mL, 76 μg/mL, 15.2 μg/mL, 3.04 μg/mL, 0.608 μg/mL, 0.1216 μg/mL, 0.02432 μg/mL, 0.004864 μg/mL. A buffer used in soluble scFv dilution and cell washing was PBS containing 2% FBS and 10 mM EDTA. Four kinds of cells were prepared at a density of 1×10⁶/mL, respectively, and put in a 96 well U-bottom cell culture plate at a density of 1×10⁵/100 μl/well, followed by centrifugation at 1500 RPM for 5 minutes. The soluble scFv prepared previously was treated in an amount of 50 μl/well. The cells were left at 4° C. for 1 hour. 150 μl/well of the cell washing buffer was added thereto and then mixed, followed by centrifugation at 1500 RPM for 5 minutes. The supernatant was discarded, and 200 μl/well of the cell washing buffer was added thereto and then mixed, followed by centrifugation at 1500 RPM for 5 minutes. A goat anti-human IgG Fc-biotin antibody (Invitrogen, A18821) was diluted 500-fold, and 50 μl/well thereof was treated. The cells were left at 4° C. for 20 minutes. 150 μl/well of the cell washing buffer was added thereto and then mixed, followed by centrifugation at 1500 RPM for 5 minutes. The supernatant was discarded, and 200 μl/well of the cell washing buffer was added thereto and then mixed, followed by centrifugation at 1500 RPM for 5 minutes. […]

[2] = molecular target: T1, C subunit of human MUC1 expressed in …; experiment: flow cytometry (PE MFI, corrected to G03 at 380 ug/mL) on HEK293T-v1 cells expressing MUC1 C subunit
Experimental: The soluble scFv prepared in Example 1 was diluted 5-fold to prepare a total of 8 serial dilutions. Each serial dilution was 380 μg/mL, 76 μg/mL, 15.2 μg/mL, 3.04 μg/mL, 0.608 μg/mL, 0.1216 μg/mL, 0.02432 μg/mL, 0.004864 μg/mL. A buffer used in soluble scFv dilution and cell washing was PBS containing 2% FBS and 10 mM EDTA. Four kinds of cells were prepared at a density of 1×10⁶/mL, respectively, and put in a 96 well U-bottom cell culture plate at a density of 1×10⁵/100 μl/well, followed by centrifugation at 1500 RPM for 5 minutes. The soluble scFv prepared previously was treated in an amount of 50 μl/well. The cells were left at 4° C. for 1 hour. 150 μl/well of the cell washing buffer was added thereto and then mixed, followed by centrifugation at 1500 RPM for 5 minutes. The supernatant was discarded, and 200 μl/well of the cell washing buffer was added thereto and then mixed, followed by centrifugation at 1500 RPM for 5 minutes. A goat anti-human IgG Fc-biotin antibody (Invitrogen, A18821) was diluted 500-fold, and 50 μl/well thereof was treated. The cells were left at 4° C. for 20 minutes. 150 μl/well of the cell washing buffer was added thereto and then mixed, followed by centrifugation at 1500 RPM for 5 minutes. The supernatant was discarded, and 200 μl/well of the cell washing buffer was added thereto and then mixed, followed by centrifugation at 1500 RPM for 5 minutes. PE-Streptavidin (BD Pharmigen, 554061) was diluted 1000-fold, and 50 μl/well thereof was treated. The cells were left at 4° C. for 20 minutes. 150 μl/well of the cell washing buffer was added thereto and then mixed, followed by centrifugation at 1500 RPM for 5 minutes. The supernatant was discarded, and 200 μl/well of the cell washing buffer was added thereto and then mixed, followed by centrifugation at 1500 RPM for 5 minutes. 80 μl/well of the cell washing buffer was added and mixed, followed by flow cytometry.
The affinity of the soluble scFv to the mucin1-expressing cells was confirmed by PE MFI values from the results of the flow cytometry. Each cell line without soluble scFv was stained with another fluorescent antibody (Goat anti-human IgG Fc-biotin antibody, PE-Streptavidin), which was used as a negative control value, and each cell line was treated with G03 at a concentration of 380 μg/mL, which was used as a positive control value, and MFI value was corrected as follows: […]

Binder	EC50 [1]	EC50 [2]
B1	> 380 µg/mL	–
B2	–	1.38 µg/mL
B3	–	1.41 µg/mL
B4	–	2.57 µg/mL
B5	–	21.7 µg/mL
B6	–	3.86 µg/mL
